In patent US20210132065A1, “MAMMALIAN MHC PEPTIDE DISPLAY AS AN EPITOPE SELECTION TOOL FOR VACCINE DESIGN” (ETH Zürich, priority 2018, published 2021):
“Also recorded” adds a separate entry of the source. Like-named read-outs stand apart in the source and are kept apart here. Where no end group is shown, it is not given here.

Legend:
[1] = target: HLA-DRB1_15 (Homo sapiens, UniProt P01903+P01911); type: cell-based; details: for MCR surface expression: peptide covalently linked to beta chain, anti-HLA-DR APC antibody, FACS
[2] = target: HLA-DRB5_1 (Homo sapiens, UniProt P01903+Q30154); type: cell-based; details: for MCR surface expression: peptide covalently linked to beta chain, anti-HLA-DR APC antibody, FACS
[3] = FIG. 6, anti-CD3e or anti-HLA-DR PE antibodies, peptides containing the core epitope with different flanking regions

Sequence of HLA-DRB5_1 (Q30154 30-227 limits assumed): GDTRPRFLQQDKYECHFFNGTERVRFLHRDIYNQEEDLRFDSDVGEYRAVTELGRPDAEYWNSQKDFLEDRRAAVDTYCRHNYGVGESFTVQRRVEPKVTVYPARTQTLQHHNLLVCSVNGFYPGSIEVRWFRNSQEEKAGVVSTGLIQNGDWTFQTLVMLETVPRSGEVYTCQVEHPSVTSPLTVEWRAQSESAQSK
Sequence of HLA-DRB5_1 (P01903 26-216 limits assumed): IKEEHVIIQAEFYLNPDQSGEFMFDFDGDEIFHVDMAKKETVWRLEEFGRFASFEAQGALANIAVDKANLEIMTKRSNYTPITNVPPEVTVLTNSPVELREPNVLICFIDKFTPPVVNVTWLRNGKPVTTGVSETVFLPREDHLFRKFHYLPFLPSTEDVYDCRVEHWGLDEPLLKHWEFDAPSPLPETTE
Sequence of HLA-DRB1_15 (P01911 30-227 limits assumed): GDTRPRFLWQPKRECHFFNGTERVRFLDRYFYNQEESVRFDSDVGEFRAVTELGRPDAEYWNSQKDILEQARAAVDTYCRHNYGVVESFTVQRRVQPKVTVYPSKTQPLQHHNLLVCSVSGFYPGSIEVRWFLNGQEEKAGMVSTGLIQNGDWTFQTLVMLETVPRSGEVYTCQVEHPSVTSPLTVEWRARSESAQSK
Sequence of HLA-DRB1_15 (P01903 26-216 limits assumed): as the sequence (P01903 26-216 limits assumed) above

| Substance | MCR surface expression [1] | MCR surface expression [2] | presentation (MCR surface expression) [1, 3] | presentation (MCR surface expression) [2, 3] | MCR surface expression ([1]; listed as MP1103-121) | MCR surface expression ([2]; listed as MP1103-121) |
| --- | --- | --- | --- | --- | --- | --- |
| MP162-72: influenza Matrix Protein 1-derived peptide comprising amino acids 62-72, covalently linked to the HLA beta chain of the MCR (FVFTLTVPSER; also: covalently linked to HLA beta chain of the MCR; UniProt P03485 62-72, looked up, fragment) | not the other HLAs tested | efficient expression | – | – | – | – |
| MP1107-117: core epitope of influenza Matrix Protein 1, amino acids 107-117, tested within peptides with different flanking regions (ITFHGAKEISL; UniProt P03485 107-117, looked up, fragment) | – | – | not by HLA-DRB1_15 | nor HLA-DRB5_1 | – | – |
| MP1103-120: influenza Matrix Protein 1 peptide, amino acids 103-120, covalently linked to the HLA beta chain of the MCR (LKREITFHGAKEISLSYS; also: covalently linked to HLA beta chain of the MCR; UniProt P03485 103-120, looked up, fragment) | detectable at very low levels; also recorded: very low MCR expression | barely detected; also recorded: not expressed at all | – | – | low surface expression | not to bind at all |
